Experimental data taken from PMC3245945 (Nucleic Acids Research, 2011).

Legend:
SEC = biological target: the molecule itself; experiment: SEC
atomic force microscopy = biological target: the molecule itself; experiment: atomic force microscopy
crystal structure = biological target: the molecule itself; experiment: crystal structure

B1: WHY2, Solanum tuberosum Whirly protein located in the mitochondria (natural protein, Solanum tuberosum (potato))
chain: ADAGKREGRVFAPYSVFKGKAALSAEPRLPTFNRLDSGGVKLNRRGVIMLTFWPSVGERKYDWEKRQLFALSATEVGSLISMGTRDSSEFFHDPSMLSSNAGQVRKSLSIKPNADGSGYFISLSVVNNNLKTNDRFTVPVTTAEFAVMRTAFSFALPHIMGWDRFTNRP
Q: Which “stoichiometry N” value (SEC) does the source give for B1 here?
A: 4

Q: What about the “stoichiometry N” value (atomic force microscopy) of the same protein?
A: 24

B2: WHY2 K67A (natural protein, Solanum tuberosum (potato))
chain: ADAGKREGRVFAPYSVFKGAAALSAEPRLPTFNRLDSGGVKLNRRGVIMLTFWPSVGERKYDWEKRQLFALSATEVGSLISMGTRDSSEFFHDPSMLSSNAGQVRKSLSIKPNADGSGYFISLSVVNNNLKTNDRFTVPVTTAEFAVMRTAFSFALPHIMGWDRFTNRP
Q: For B2, which “stoichiometry N” value (SEC) is on record?
A: 4

Q: What about the “stoichiometry N” value (crystal structure) of the same protein?
A: 24
